Results on 16 sequences are retold here after the nanobody polyreactivity screen of Harvey et al. (2022).

The nature of the data set: yeast display, Sf9 membrane polyspecificity reagent, FACS + sequencing; frameworks hold sequencing errors. The procedure, abridged: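 Genes from sorted yeast were amplified by colony PCR, read by MiSeq 2 × 250 sequencing and filtered on CDR length. These cells carried a synthetic nanobody library in Saccharomyces cerevisiae BJ5465 and were sorted by FACS into low and high (top ~1%) gates on anti-HA and streptavidin fluorescence. Polyreactivity is labelled according to the gate of origin.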
As for “QVQLVESGGGLVQAGGSLRLSCAASGYTFSYYAMGWYRQAPGKERELVAAISWSGGSTYYADSVKGRFTISRDNAKNTVYLQMNSLKPEDTAFYYCAAKPWRGTLMRYGYWGQGTQVTVSS”, the “polyreactivity (PSR sort gate)” value is reported as “high polyreactivity”.
In the case of “QVQLLESGGGLVQAGGSRRLSCASSGITFAFYAMGWYRQAPGKESELVAAISWSGTRTYYADSVKGRFTISRDNAKNTVYLQMNRLKPEDTAVYYCAAVYQAGDKLYDYWGQGTQVTVSS” it was “low polyreactivity”; in that of “QVQLVESGGGLVQAGGTLRLSCAASGRTFVPYAMGWYRQAPGKERELVATISSSGGSTYYADSVKGRFTISRDNSKNTVYLQMNSLKPEDTAVYYCATADRWSSSYYRSVRWYHYDYWGQGTQVTVSS”, “low polyreactivity”; in that of “QVQLVESGGGLVQAGGSLRLSCAASGSIFRSYAMGWYRQAPGKERELVAGISYSGGSTYYADSVKGRFTISRDNAKNTVYLQMNSLKPEDTAVYYCNTRTGAFFLSKPYDYWGQGTQVTVSS”, “low polyreactivity”.
In the case of “QVQLVESGGGLVQAGGSLRLSCAAYGLTFRVYTMGWYRQAPGKERELVAAISTDGGSTYYADSVKGRFTISRDNAKNTVYFQMNSLKPEDTAVYYCAAKWYSYRWTQFDYWGQGTQVSVSS” it was “high polyreactivity”; in that of “QVQLVESGGGLVQAGGSLRLSCAASGRTSFWNAMGWYRQAPGKERELVAAISASVGRTYYADSVKGRFTISRDNAKNTVYLQMNSLKPEDTAVYYCAKVYHAGTGYPSLGLDYWGQGTQVTVSS”, “low polyreactivity”.
Turning to “QVQLVESGGGLVQAGGSLRLSCAASGSTFDTYAMGWYRPAPGKERELVAAISRSGTSTYYADSVKGRFTISRDNAKNTVYLQMNSLKPEDSAVYYCAAYGPRVNGEIGREYYYWGQGTQVTVSS”, the “polyreactivity (PSR sort gate)” value is on record as “low polyreactivity”.
Then “QVQLVESGGGLVQAGGSLRLSCSASGFIFITVNAMGWYRQAPGKEREFVAAITRSGTGTYYADSVKGRFTISRDHAKNTVYLQMNSLKPEDTAVYYCAADATSTGAYDYWGQGTQVTVSS”, with “low polyreactivity”; and “QVQLVESGGGLVQAGGSLRLSCAASGFIFSYYTMGWYRQAPGKESELVAAISYSGGSTDYADSVKWRFTISRDNAKNTVYLQMNSLKPEDTAVYYCNADYSFWAEPYWEYGYDYWGQGTQVTVSS”, with “low polyreactivity”.
Then “QVQLVESGGALVQAGGSLRLSCAASGRIFRSYVMGWYRQAPGKERELVATITGGGRTNYADSVKGRFTISRDNAKNTVYLQMTSLKPEDTAVYYCAGVYRWWPFHAFDYWGQGTQVTVSS”, with “high polyreactivity”; and “QVQLVESGGGLVQPGGSLRLSCAASGFIFYWYAMGWYRQAPGKERELVAAISYDTGSTYYADSVKGRFTISRDNAKITVYFQINSLKPEDTAVYYCAADASWRVYTGYYWGQGTQVTVSS”, with “high polyreactivity”; and “QVQLVESGGGLVQAGGSLRLSCAASGRPFASYALGWYREAPGKERELVAVITRGVRTYYADSVKGRFTISRDNAKNTVYLQMNSLKPEDTAVYSCAKERYNANYDTSLYDYWGQGTQVTVSS”, with “low polyreactivity”.
In the case of “QVHLHETGGGLVQAGGSLRLSCAASGTISVTYNMGWYRQAPGKEREFVAGNSTGATTNYADSVKGRFTISRDNANNTVYLQMNSLKPEDTAVYYCAAHIYRKDHFYYWGQGTQVTVSS” it was “low polyreactivity”; in that of “QVQLVESGGGLVQAGGSLRLSCAASGRTLAHYTMGWYRQAPGKERELVAAITFSGGRTYYAHSVKGRFTISRDNAKNTVYLQMNSLKPEDTAVYYCAAPGRCYYRGDDYWGQGTQVTVSS”, “low polyreactivity”; in that of “QDQLEESGGGLVQAGGSLRLSCAASGRNFYGYVMGWYRQAPGKERELVAAISSGGSTYYADSVKGRFTISRDNAKNTVYLQMNSLKPEDTAVYYCNADWKSYRGPKFDYWGQGTQVTVSS”, “low polyreactivity”.
On to “QVQLVESGGGLVQAGGSLRLSCAASGRTFRYNAMGWYRQAPGKERELVAAITWSGGSTYYADSVKGRFTISRDNAKNTVYLQMNSLKPEDTAVYYCNKVTWHQGHDYWGQGTQVTVSS”, for which the “polyreactivity (PSR sort gate)” value was “low polyreactivity”.
